Key:
Csa3a (SsCsa3a) [1] = target: T1, Csa3a (SsCsa3a) (Saccharolobus solfataricus P2, UniProt Q97Y88 1-237); assay: fluorescence polarization; conditions: 37 C 30 min, 18 nM DNA (5.2 ng/uL), +/-10 uM cA4, 2% agarose, FP: 20 mM SPG, 50 mM NaCl, pH 6.5, 50 C (also 21 C), 30 nM DNA, ITC: 10 mM Tris
T1 sequence: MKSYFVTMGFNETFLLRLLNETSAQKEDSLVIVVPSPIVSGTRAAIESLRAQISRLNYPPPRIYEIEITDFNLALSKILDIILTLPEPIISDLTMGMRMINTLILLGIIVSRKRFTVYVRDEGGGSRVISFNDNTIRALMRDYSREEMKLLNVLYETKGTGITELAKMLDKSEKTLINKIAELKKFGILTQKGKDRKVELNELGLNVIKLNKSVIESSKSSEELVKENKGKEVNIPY

Csa3a (SsCsa3a, Sso1445) = target: T2, Csa3a (SsCsa3a, Sso1445) (Saccharolobus solfataricus, UniProt Q97Y88); assay: ITC at […] °C; co-crystal structure at […] Å; assay type: binding
T2 construct: gene csa3; 6×His-tagged Sso1445 (pEXP14-6×His-Sso1445), homodimer; crystal model lacks residues 213–237 of both chains and 160–162, 174–176, 192–195 of chain A
T2 sequence (Q97Y88 1-237): T1 sequence

Csa3a (SsCsa3a) [2] = target: T1, Csa3a (SsCsa3a); assay: ITC; 25 C; 250-500 uM cA4; n about 0.6 per dimer; endothermic; EMSA: TAE, 37 C 30 min, 18 nM DNA (5.2 ng/uL), +/-10 uM cA4, 2% agarose; FP: 20 mM SPG, 50 mM NaCl, pH 6.5, 50 C (also 21 C), 30 nM DNA; ITC: 10 mM Tris, 50 mM; conditions: protein: recombinant; tags: 6xHis (pEXP14-6xHis-Sso1445); chain copies: 2; cyclic, single copy per Csa3a dimer
[3] = target: the molecule itself; assay: crystal structure; Csa3a co-crystallised with cA4 by hanging drop vapor diffusion at 22 °C; 2.45 Å; space group P212121; one Csa3a dimer in the asymmetric unit

20 bp CAPPa, I-A (2) cas4a promoter gave a Kd (Csa3a (SsCsa3a) [1]; 10 uM cA4, 50 C, EMSA: TAE) of 2700 nM and a Kd (Csa3a (SsCsa3a) [1]; no cA4, 50 C, non-cooperative, EMSA: TAE) of 3200 nM.

In the case of 75 bp I-A (2) cas4a CAPPa fragment, the Kd (Csa3a (SsCsa3a) [1]; 10 uM cA4, 50 C, cooperative, EMSA: TAE) is reported as 210 nM and the Kd (Csa3a (SsCsa3a) [1]; no cA4, 50 C, cooperative, Hill about 2, EMSA: TAE) is reported as 270 nM.

For `Nc1ncnc2c1ncn2[C@@H]1O[C@@H]2COP(=O)(O)O[C@H]3[C@@H](O)[C@H](n4cnc5c(N)ncnc54)O[C@@H]3COP(=O)(O)O[C@H]3[C@@H](O)[C@H](n4cnc5c(N)ncnc54)O[C@@H]3COP(=O)(O)O[C@H]3[C@@H](O)[C@H](n4cnc5c(N)ncnc54)O[C@@H]3COP(=O)(O)O[C@H]2[C@H]1O` [cA4, cyclic tetra-adenylate], the Kd (Csa3a (SsCsa3a, Sso1445)) was 1000 to 1500 nM.

With AAAA (ssRNA, cyclic, 3'-5' linked?) [cA4 (cyclic tetra-adenylate)] the Kd (Csa3a (SsCsa3a) [2]) was 1220 nM.

B1: Saccharolobus solfataricus Csa3a (Sso1445) (natural protein, UniProt Q97Y88 1-237, looked up)
chain: T1 sequence
notes: Csa3a (Sso1445) of Saccharolobus (Sulfolobus) solfataricus P2, with an N-terminal CARF domain and a C-terminal winged helix-turn-helix domain; also called SsCsa3a; SsCsa3; source: E. coli BL21 (DE3)-pRIL, purified (heat step at 60 °C, Ni-NTA, Superdex 75)
B1: binds [3].

From article PMC8699464, “Cyclic Tetra-Adenylate (cA4) Recognition by Csa3; Implications for an Integrated Class 1 CRISPR-Cas Immune Response in Saccharolobus solfataricus” (Biomolecules, 2021)
